In patent US20120301433A1, “BACTERIOPHAGES EXPRESSING AMYLOID PEPTIDES AND USES THEREOF” (priority 2009, published 2012):

Target: amyloid-b1-42 peptide (UniProt P05067)
Assay: cell-based or functional assay

T7-RRR-CsgB133-142-PPP, sequence (P19727 1-348, tags or fused parts left off): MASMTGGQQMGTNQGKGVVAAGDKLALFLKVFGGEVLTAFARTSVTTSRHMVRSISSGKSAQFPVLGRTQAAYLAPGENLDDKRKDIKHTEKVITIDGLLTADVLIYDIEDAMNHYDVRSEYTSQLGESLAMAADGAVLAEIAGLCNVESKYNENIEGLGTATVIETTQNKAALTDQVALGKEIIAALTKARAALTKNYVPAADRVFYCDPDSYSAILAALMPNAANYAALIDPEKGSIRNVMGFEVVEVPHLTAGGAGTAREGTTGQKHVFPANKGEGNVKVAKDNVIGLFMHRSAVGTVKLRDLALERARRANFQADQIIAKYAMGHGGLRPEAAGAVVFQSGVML
amyloid-b1-42 peptide, sequence (P05067 672-713 limits assumed): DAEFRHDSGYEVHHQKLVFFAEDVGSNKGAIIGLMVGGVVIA

**Q.** Which results are given for “T7-RRR-CsgB133-142-PPP (from UniProt P19727 1-348)”?
**A.** Aβ:peptide molar ratio at the doubling of the lag time: 70000; phage concentration that doubles the lag time of Aβ fiber formation: 5e+07 PFU/mL
